# Experimental data from IntAct's records for PubMed 35512704.
# B1: Mothers against decapentaplegic homolog 4 (Homo sapiens), Q13485 (parent)
# chain: MDNMSITNTPTSNDACLSIVHSLMCHRQGGESETFAKRAIESLVKKLKEKKDELDSLITAITTNGAHPSKCVTIQRTLDGRLQVAGRKGFPHVIYARLWRWPDLHKNELKHVKYCQYAFDLKCDSVCVNPYHYERVVSPGIDLSGLTLQSNAPSSMMVKDEYVHDFEGQPSLSTEGHSIQTIQHPPSNRASTETYSTPALLAPSESNATSTANFPNIPVASTSQPASILGGSHSEGLLQIASGPQPGQQQNGFTGQPATYHHNSTTTWTGSRTAPYTPNLPHHQNGHLQHHPPMPPHPGHYWPVHNELAFQPPISNHPAPEYWCSIAYFEMDVQVGETFKVPSSCPIVTVDGYVDPSGGDRFCLGQLSNVHRTEAIERARLHIGKGVQLECKGEGDVWVRCLSDHAVFVQSYYLDREAGRAPGDAVHKIYPSAYIKVFDLRQCHRQMQQQAATAQAAAAAQAAAVAGNIPGPGSVGGIAPAISLSAAAGIGVDDLRRLCILRMSFVKGWGPDYPRQSIKETPCWIEIHLHRALQLLDEVLHTMPIADPQPLD
# partner: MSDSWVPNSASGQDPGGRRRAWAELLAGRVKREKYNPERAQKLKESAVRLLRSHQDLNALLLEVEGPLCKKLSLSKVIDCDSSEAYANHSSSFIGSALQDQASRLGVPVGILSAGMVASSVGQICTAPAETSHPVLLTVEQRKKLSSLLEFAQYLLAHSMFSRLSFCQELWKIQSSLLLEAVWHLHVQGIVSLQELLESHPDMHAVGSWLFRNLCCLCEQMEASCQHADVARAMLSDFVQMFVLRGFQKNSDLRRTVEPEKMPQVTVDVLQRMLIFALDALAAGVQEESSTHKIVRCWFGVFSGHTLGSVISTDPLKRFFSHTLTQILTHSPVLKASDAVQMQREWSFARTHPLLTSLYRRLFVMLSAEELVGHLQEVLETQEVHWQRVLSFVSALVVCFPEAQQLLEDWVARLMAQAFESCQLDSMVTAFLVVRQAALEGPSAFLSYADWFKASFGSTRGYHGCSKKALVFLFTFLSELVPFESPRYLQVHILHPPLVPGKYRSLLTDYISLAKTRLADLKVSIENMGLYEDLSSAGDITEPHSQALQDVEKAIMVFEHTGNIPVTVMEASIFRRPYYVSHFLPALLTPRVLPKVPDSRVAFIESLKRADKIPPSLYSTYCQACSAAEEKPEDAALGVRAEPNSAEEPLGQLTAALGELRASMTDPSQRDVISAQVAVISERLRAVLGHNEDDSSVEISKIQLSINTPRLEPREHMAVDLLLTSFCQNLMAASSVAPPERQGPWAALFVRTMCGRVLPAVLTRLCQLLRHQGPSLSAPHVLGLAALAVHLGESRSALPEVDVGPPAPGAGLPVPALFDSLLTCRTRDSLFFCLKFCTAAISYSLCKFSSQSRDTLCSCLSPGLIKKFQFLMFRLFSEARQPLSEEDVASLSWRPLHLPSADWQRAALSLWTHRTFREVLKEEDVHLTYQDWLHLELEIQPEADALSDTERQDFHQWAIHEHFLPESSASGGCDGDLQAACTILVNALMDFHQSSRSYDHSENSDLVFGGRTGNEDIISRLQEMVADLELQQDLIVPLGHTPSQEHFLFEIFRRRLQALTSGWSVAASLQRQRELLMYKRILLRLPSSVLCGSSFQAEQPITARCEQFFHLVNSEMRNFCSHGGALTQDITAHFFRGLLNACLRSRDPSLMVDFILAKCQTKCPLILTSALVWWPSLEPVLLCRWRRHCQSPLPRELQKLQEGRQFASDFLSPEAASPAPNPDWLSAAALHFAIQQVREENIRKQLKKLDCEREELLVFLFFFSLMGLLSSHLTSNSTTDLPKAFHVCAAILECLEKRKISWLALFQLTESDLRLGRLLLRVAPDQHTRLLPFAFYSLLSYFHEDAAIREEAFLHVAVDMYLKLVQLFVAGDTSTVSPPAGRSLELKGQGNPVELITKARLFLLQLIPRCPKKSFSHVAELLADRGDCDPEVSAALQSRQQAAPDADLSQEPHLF
# B2: Mothers against decapentaplegic homolog 4 (Homo sapiens), Q13485 (parent)
# chain: B1 chain
# partner: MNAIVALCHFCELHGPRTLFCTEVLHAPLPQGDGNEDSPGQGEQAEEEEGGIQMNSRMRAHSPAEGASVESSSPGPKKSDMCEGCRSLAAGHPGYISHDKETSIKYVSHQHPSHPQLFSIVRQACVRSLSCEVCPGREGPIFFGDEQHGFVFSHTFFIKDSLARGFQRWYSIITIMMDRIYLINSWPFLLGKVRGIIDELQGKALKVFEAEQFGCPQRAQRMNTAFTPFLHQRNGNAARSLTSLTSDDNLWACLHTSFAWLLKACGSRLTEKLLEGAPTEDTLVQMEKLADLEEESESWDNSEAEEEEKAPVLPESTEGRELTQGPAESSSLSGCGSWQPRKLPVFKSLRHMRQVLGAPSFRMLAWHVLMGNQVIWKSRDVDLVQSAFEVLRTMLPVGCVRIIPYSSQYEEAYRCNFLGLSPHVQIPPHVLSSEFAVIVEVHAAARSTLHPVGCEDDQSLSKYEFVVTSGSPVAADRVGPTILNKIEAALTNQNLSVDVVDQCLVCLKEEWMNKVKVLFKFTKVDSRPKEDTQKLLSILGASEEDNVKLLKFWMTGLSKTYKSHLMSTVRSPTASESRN
# B3: Mothers against decapentaplegic homolog 4 (Homo sapiens), Q13485 (parent)
# chain: B1 chain
# partner: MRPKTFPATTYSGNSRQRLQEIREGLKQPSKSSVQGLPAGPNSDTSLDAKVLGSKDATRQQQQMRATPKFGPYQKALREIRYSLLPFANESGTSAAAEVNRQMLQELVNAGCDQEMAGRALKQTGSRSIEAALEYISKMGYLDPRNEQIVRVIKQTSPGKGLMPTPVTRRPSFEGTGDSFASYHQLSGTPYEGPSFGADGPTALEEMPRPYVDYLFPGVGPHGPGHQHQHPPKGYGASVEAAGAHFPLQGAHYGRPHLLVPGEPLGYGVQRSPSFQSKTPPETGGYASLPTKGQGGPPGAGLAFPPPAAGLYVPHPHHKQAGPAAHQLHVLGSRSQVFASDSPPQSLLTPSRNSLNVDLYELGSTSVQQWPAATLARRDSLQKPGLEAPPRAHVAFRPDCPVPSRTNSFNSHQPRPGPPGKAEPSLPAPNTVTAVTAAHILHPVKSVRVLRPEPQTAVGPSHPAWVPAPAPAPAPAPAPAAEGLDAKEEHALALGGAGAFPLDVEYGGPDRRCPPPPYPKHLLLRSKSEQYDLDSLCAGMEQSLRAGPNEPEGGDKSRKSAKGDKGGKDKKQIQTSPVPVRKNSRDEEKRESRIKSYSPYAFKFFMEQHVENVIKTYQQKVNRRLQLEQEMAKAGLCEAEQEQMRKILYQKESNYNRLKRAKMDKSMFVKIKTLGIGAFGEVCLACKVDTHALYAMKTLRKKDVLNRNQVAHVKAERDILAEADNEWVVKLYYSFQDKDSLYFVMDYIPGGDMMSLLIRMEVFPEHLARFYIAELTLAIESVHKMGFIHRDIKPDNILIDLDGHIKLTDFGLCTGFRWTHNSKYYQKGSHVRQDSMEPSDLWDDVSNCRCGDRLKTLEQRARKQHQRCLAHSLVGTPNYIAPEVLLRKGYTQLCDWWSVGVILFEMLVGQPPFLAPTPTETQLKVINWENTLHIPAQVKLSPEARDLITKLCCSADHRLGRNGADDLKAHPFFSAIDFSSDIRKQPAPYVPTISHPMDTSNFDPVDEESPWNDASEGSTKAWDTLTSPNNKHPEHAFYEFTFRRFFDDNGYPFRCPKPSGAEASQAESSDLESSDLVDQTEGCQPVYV
# Variants of: B1
# Conditions: with fanca_human FANCA
row,effect of a mutation on the interaction,Variant
1,with no effect,D351H

# Variants of: B1
# Conditions: with fanca_human FANCA
# Remark: another data set of the same source
row,effect of a mutation on the interaction,Variant
1,with no effect,R361H

# Variants of: B1
# Conditions: with fanca_human FANCA
# Remark: another data set of the same source
row,effect of a mutation on the interaction,Variant
1,with no effect,R361C

# Variants of: B1
# Conditions: with fanca_human FANCA
# Remark: another data set of the same source
row,effect of a mutation on the interaction,Variant
1,with no effect,G386D

# Variants of: B2
# Conditions: with flcn_human FLCN
row,effect of a mutation on the interaction,Variant
1,with no effect,D351H

# Variants of: B2
# Conditions: with flcn_human FLCN
# Remark: another data set of the same source
row,effect of a mutation on the interaction,Variant
1,with no effect,R361C

# Variants of: B2
# Conditions: with flcn_human FLCN
# Remark: another data set of the same source
row,effect of a mutation on the interaction,Variant
1,with no effect,R361H

# Variants of: B2
# Conditions: with flcn_human FLCN
# Remark: another data set of the same source
row,effect of a mutation on the interaction,Variant
1,with no effect,G386D

# Variants of: B3
# Conditions: with lats2_human LATS2, Q9NRM7
row,effect of a mutation on the interaction,Variant
1,with no effect,G386D

# Variants of: B3
# Conditions: with lats2_human LATS2, Q9NRM7
# Remark: another data set of the same source
row,effect of a mutation on the interaction,Variant
1,with no effect,R361H

# Variants of: B3
# Conditions: with lats2_human LATS2, Q9NRM7
# Remark: another data set of the same source
row,effect of a mutation on the interaction,Variant
1,with no effect,R361C

# Variants of: B3
# Conditions: with lats2_human LATS2, Q9NRM7
# Remark: another data set of the same source
row,effect of a mutation on the interaction,Variant
1,with no effect,D351H
